Read-outs that look alike come from different tables or passages of the source.
How the values were obtained:
[1] = biological target: T1, SARS-CoV-2 S protein, wild type, on CHO cells (SARS-CoV-2, Wuhan (GenBank MN908947.3), UniProt P0DTC2); test: cell-based or functional assay
[2] = biological target: SARS-CoV-2 RBD (monomeric) (SARS-CoV-2, Wuhan reference …, UniProt P0DTC2); test: SPR
[3] = biological target: T1, SARS-CoV-2 S protein, wild type, on CHO …; test: cell-based or functional assay; remark: listed apart in the source
[4] = biological target: T2, RBD-Fc, reference sequence (SARS-CoV-2, Wuhan reference …, UniProt P0DTC2); test: SPR
[5] = biological target: T2, RBD-Fc, reference sequence; test: SPR; remark: listed apart in the source

B1: LY-CoV1404 (bebtelovimab), full-length human IgG1 mAb (antibody, V domains shown)
VH: QITLKESGPTLVKPTQTLTLTCTFSGFSLSISGVGVGWLRQPPGKALEWLALIYWDDDKRYSPSLKSRLTISKDTSKNQVVLKMTNIDPVDTATYYCAHHSISTIFDHWGQGTLVTVSS
VL: QSALTQPASVSGSPGQSITISCTATSSDVGDYNYVSWYQQHPGKAPKLMIFEVSDRPSGISNRFSGSKSGNTASLTISGLQAEDEADYYCSSYTTSSAVFGGGTKLTVL
In the case of B1, the “authentic SARS-CoV-2/MT020880.1 neutralisation, IFA, IC50 (S-ACE2)” value [1] is reported as 0.009 to 0.0221 mg/L, the Kd [2] is reported as 1.58 nM and the “PRNT, Italy-INMI1 isolate, combination study, LY-CoV1404 alone, IC50” value [3] is reported as 0.015 mg/L. The “PRNT, authentic Italy-INMI1 isolate, IC50” value [3] was 0.01 mg/L and the “PRNT, authentic WA isolate, IC50” value [3] was 0.002 mg/L.

B2: LY-CoV1404 Fab (papain digestion) (Fab, V domains shown)
VH: QITLKESGPTLVKPTQTLTLTCTFSGFSLSISGVGVGWLRQPPGKALEWLALIYWDDDKRYSPSLKSRLTISKDTSKNQVVLKMTNIDPVDTATYYCAHHSISTIFDHWGQGTLVTVSS
VL: QSALTQPASVSGSPGQSITISCTATSSDVGDYNYVSWYQQHPGKAPKLMIFEVSDRPSGISNRFSGSKSGNTASLTISGLQAEDEADYYCSSYTTSSAVFGGGTKLTVL
For B2, the Kd [4] was 4.01 nM and the Kd [5] was 3.71 nM.

Reference: paper PMC9035363 (Cell Reports, 2022)
